How the values were obtained:
[1] = target: T1, AD4 polypeptide (cloned AD4 fragment of CMV AD169 envelope glycoprotein B) (human cytomegalovirus strain AD169, UniProt P06473 112-438); test: SPR (Biacore T200), antibody captured on anti-human IgG CM5 chip, AD4 polypeptide as analyte, 1:1 model
T1 construct: also called antigenic domain 4

[2] = target: CMV AD169 envelope glycoprotein B (gB) (human cytomegalovirus strain AD169, UniProt P06473 32-906); test: cell-based or functional assay

B1: C15 (antibody, V domains shown)
VH: EMQLLESGGGLVQPGGSLRVSCAASGFTFSSHAMSWVRQAPGKGLEWVSSISRSGDNTFYADSVKGRFTISRDNIKSTVYLQMNSLRAEDTAVYFCASRYTEGDSVWYFDVWGRGTLVTVSS
VL: EVVLTQSPATLSVSAGDRATLSCRASQSVSRDLAWYQQKPGQAPRLLIYGASTRATDIPVRFSGSGSGTEFSLTISSLQSEDFAVYYCHQYKHWPRTFGQGTKVEIKR
notes: Human IgG, transiently expressed in HEK293
Kd [1]: 6.44 nM | koff [1]: 0.00234 s⁻¹ | kon [1]: 363000 M⁻¹ s⁻¹ | CMV Neutr. IC50 [2]: < 0.3 µg/mL

B2: C11 (antibody, V domains shown)
VH: EVQLLESGGGLIQPGGSLRLSCVASGFTFTRHAINWVRQAPGKGLEWVSAISGSGSSTYYADSVKGRFTISRDNAKNTLYLQMNRLRVEDTAVYYCAKDKDYGMVAATPDAFDIWGQGTMVTVSS
VL: QSVLTQPPSVSAAPGQKVTISCSGSRSNIAKNYVYWYQQLPGTAPKLLIYDTNKRPSGIPDRFSGSKSGTSATLAITGLQTGDEADYYCGTWDSSLKTAIFFGGGTTVTVLG
notes: as for B1
Kd [1]: 5.67 nM | koff [1]: 0.00109 s⁻¹ | kon [1]: 192000 M⁻¹ s⁻¹ | CMV Neutr. IC50 [2]: > 50 µg/mL

B3: C6 (antibody, V domains shown)
VH: QVQLQESGPGLVKPLETLSLTCTVSGGSISSGSFYWTWIRQHPGKGLEWIGYIHSSGTTYYNPSLKSRLNISRDTSKNQFTLKLSSVTAADTAVYYCAKEIIQWPRRWFDPWGQGTLVTVSS
VL: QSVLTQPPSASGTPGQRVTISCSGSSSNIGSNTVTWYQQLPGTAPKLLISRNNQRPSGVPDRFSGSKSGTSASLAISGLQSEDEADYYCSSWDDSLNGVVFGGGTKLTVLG
notes: as for B1
Kd [1]: 2.5 nM | koff [1]: 0.00138 s⁻¹ | kon [1]: 554000 M⁻¹ s⁻¹ | CMV Neutr. IC50 [2]: < 2 µg/mL

B4: C8 (antibody, V domains shown)
VH: QVQLQESGPGLVKPLETLSLTCTVSGGSISSGSFYWTWIRQHPGKGLEWIGYIHSSGTTYYNPSLKSRLNISRDTSKNQFTLKLSSVTAADTAVYYCAKEIIQWPRRWFDPWGQGTLVTVSS
VL: QSVLTQPPSVSAAPGQKVTISCSGSRSNIGKNYVYWYQQLPGTAPKLLIYDNNKRPSGIPDRFSGSKSGTSATLAITGLQTGDEADYYCGTWDSSLKTGIFFGGGTKLTVLG
notes: as for B1
Kd [1]: 4.49 nM | koff [1]: 0.00186 s⁻¹ | kon [1]: 414000 M⁻¹ s⁻¹ | CMV Neutr. IC50 [2]: > 50 µg/mL

B5: C3 (antibody, V domains shown)
VH: QVQLQESGPGLVKPLETLSLTCTVSGGSISSGSFYWTWIRQHPGKGLEWIGYIHSSGTTYYNPSLKSRLNISRDTSKNQFTLKLSSVTAADTAVYYCAKEIIQWPRRWFDPWGQGTLVTVSS
VL: QSMLTQPPSVSAAPGQKVIISCSGSSSNIGNNYVNWYQQLPGTAPKLLIYDNDKRPSGIPDRFSGSKSGTSATLGITGLQTGDEADYYCGTWDSTLTAGVFGGGTKLTVLG
notes: as for B1
Kd [1]: 0.549 nM | koff [1]: 0.00068 s⁻¹ | kon [1]: 1.24e+06 M⁻¹ s⁻¹ | CMV Neutr. IC50 [2]: < 0.07 µg/mL

B6: C10 (antibody, V domains shown)
VH: QVQLQESGPGLVKPLETLSLTCTVSGGSISSGSFYWTWIRQHPGKGLEWIGYIHSSGTTYYNPSLKSRLNISRDTSKNQFTLKLSSVTAADTAVYYCAKEIIQWPRRWFDPWGQGTLVTVSS
VL: QSVLTQPPSASGTPGQRVTISCSGSSSNIGSNYIDWYQQLPGTGPQLLTYRNNQRPSGVPDRFSGSKSGTSASLAISGLRSEDEADYYCASWDDSLSSPVFGGGTKLTVLG
notes: as for B1
Kd [1]: 3.97 nM | koff [1]: 0.00197 s⁻¹ | kon [1]: 496000 M⁻¹ s⁻¹ | CMV Neutr. IC50 [2]: > 50 µg/mL

B7: C5 (antibody, V domains shown)
VH: QVQLQESGPGLVKPLETLSLTCTVSGGSISSGSFYWTWIRQHPGKGLEWIGYIHSSGTTYYNPSLKSRLNISRDTSKNQFTLKLSSVTAADTAVYYCAKEIIQWPRRWFDPWGQGTLVTVSS
VL: QSMLTQPPSVSAAPGQKVIISCSGSSSNIGNNFVNWYQKFPGTAPKLLIYDNDKRPSGIPDRFSGSKSGTSATLGITGLQTGDEAEYYCGTWDSSLTAGVFGGGTTLTVLG
notes: as for B1
Kd [1]: 0.278 nM | koff [1]: 0.000201 s⁻¹ | kon [1]: 721000 M⁻¹ s⁻¹ | CMV Neutr. IC50 [2]: < 6 µg/mL

B8: C9 (antibody, V domains shown)
VH: QVQLQESGPGLVKPLETLSLTCTVSGGSISSGSFYWTWIRQHPGKGLEWIGYIHSSGTTYYNPSLKSRLNISRDTSKNQFTLKLSSVTAADTAVYYCAKEIIQWPRRWFDPWGQGTLVTVSS
VL: QSVLTQPPSVSAAPGQKVTISCSGSRSNIAKNYVYWYQQLPGTAPKLLIYDTNKRPSGIPDRFSGSKSGTSATLAITGLQTGDEADYYCGTWDSSLKTAIFFGGGTTVTVLG
notes: as for B1
Kd [1]: 3.95 nM | koff [1]: 0.00238 s⁻¹ | kon [1]: 602000 M⁻¹ s⁻¹ | CMV Neutr. IC50 [2]: > 50 µg/mL

B9: C7 (antibody, V domains shown)
VH: QVQLQESGPGLVKPLETLSLTCTVSGGSISSGSFYWTWIRQHPGKGLEWIGYIHSSGTTYYNPSLKSRLNISRDTSKNQFTLKLSSVTAADTAVYYCAKEIIQWPRRWFDPWGQGTLVTVSS
VL: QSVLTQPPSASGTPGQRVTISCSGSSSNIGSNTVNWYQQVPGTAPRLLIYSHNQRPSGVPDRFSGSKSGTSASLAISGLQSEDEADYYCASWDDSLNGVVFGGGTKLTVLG
notes: as for B1
Kd [1]: 7.76 nM | koff [1]: 0.00604 s⁻¹ | kon [1]: 779000 M⁻¹ s⁻¹ | CMV Neutr. IC50 [2]: > 50 µg/mL

B10: C4 (antibody, V domains shown)
VH: QVQLQESGPGLVKPLETLSLTCTVSGGSISSGSFYWTWIRQHPGKGLEWIGYIHSSGTTYYNPSLKSRLNISRDTSKNQFTLKLSSVTAADTAVYYCAKEIIQWPRRWFDPWGQGTLVTVSS
VL: QSVLTQPPSVSAAPGQKVIISCSGSGSNIGSHYVNWYQQLPGAAPKLLIYDNDKRPSGIPDRFSGSKSGTSATLAITGLQTGDEADYHCATWDGTLTAGVFGGGTKLTVLG
notes: as for B1
Kd [1]: 0.695 nM | koff [1]: 0.00063 s⁻¹ | kon [1]: 908000 M⁻¹ s⁻¹ | CMV Neutr. IC50 [2]: < 0.04 µg/mL

B11: C12 (antibody, V domains shown)
VH: QVQLQESGPGLVKPLETLSLTCTVSGGSIRGGDYWWTWVRQPPGKGLEWLGYIYRTGSTYYNPSLKSRLTISLDTSKNHFSLKLASATAADTAVYYCARDPGDDSGGNSGLDYWGQGVLVSVSS
VL: QSMLTQPPSVSAAPGQKVIISCSGSSSNIGNNFVNWYQKFPGTAPKLLIYDNDKRPSGIPDRFSGSKSGTSATLGITGLQTGDEAEYYCGTWDSSLTAGVFGGGTTLTVLG
notes: as for B1
Kd [1]: 3.27 nM | koff [1]: 0.00369 s⁻¹ | kon [1]: 1.13e+06 M⁻¹ s⁻¹ | CMV Neutr. IC50 [2]: > 50 µg/mL

From US20150110794A1 (CELL SIGNALING TECHNOLOGY, published 2015)
